From paper PMC9307154 come the findings set out here.

The target in this assay is Bovine leukemia virus retropepsin (BLV-PR), mature recombinant protease (Bovine leukemia virus). The experiment in a line: enzyme kinetics (initial rate against enzyme concentration); dimer to monomers; BLV-PR 5-200 nM (as monomer) preincubated 15 min at 25°C in reaction buffer (250 mM phosphate pH 5.6, 500 mM NaCl, 10 mM EDTA, 5 mM DTT, 1% glycerol, 1% DMSO), then 1 uM MA-CA fluorogenic substrate, 37°C, rate of the first 3 min, fit of quadratic Eq 1.

Broadly, the Kd is a measure of binding affinity in units of concentration. In the case of “Bovine leukemia virus retropepsin (BLV-PR), mature recombinant protease (enzyme)”, the Kd came out at 160 nM.
